The source of these data is paper PMC9943654, “The recognition mode between hsRBFA and mitoribosome 12S rRNA during mitoribosomal biogenesis”.

In one series the target is T1, hsRBFA Nt-KH (Homo sapiens, UniProt Q8N0V3 42-201).
T1 sequence: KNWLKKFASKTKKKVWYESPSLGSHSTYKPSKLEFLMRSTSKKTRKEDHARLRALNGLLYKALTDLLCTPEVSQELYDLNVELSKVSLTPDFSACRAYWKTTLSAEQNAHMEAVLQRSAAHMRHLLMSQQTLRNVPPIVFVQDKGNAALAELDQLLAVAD
As to the kind of experiment: EMSA; EMSA: 20 mM Tris-HCl pH 8.0, 200 mM NaCl, 37 C 30 min, 200 nM ssRNA or 2 uM dsRNA; FP: same buffer, 40 nM 5'-FAM RNA, temperature not stated. Conditions: protein: recombinant, tags: His6-MBP N-terminal.

A further series deals with T2, hsRBFA KH-like (Homo sapiens, UniProt Q8N0V3 86-201).
T2 sequence: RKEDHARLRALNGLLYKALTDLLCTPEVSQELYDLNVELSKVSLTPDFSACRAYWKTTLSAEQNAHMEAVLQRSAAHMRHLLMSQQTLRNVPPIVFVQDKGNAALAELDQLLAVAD
The series is described as above. The settings on record: protein: recombinant, tags: His6-MBP N-terminal.

The target of another series is T3, hsRBFA Nt (Homo sapiens, UniProt Q8N0V3 42-89).
T3 chain: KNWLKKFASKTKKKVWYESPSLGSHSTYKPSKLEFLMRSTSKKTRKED
Briefly: EMSA; complex stays in well; EMSA: 20 mM Tris-HCl pH 8.0, 200 mM NaCl, 37 C 30 min, 200 nM ssRNA or 2 uM dsRNA; FP: same buffer, 40 nM 5'-FAM RNA, temperature not stated. Conditions: protein: recombinant, tags: His6-MBP N-terminal, hairpin. On the technique in general: Mobility shift assays separate free from complexed probe on a gel.

Turning to GGUGGCGGUGCUUCAUUCGUGAAGCGCGUCACC (structured_RNA) [h28], the binding result with hsRBFA Nt-KH (hairpin) was “binds”; with hsRBFA KH-like (hairpin), “no binding”; with hsRBFA Nt it was “binds”.

As to GGCGUCACCCUCUUCGGAGACAAGUCGCC (structured_RNA) [h44], the binding result in the series with hsRBFA Nt-KH (label: 5'-FAM in FP, hairpin) was “binds”; with hsRBFA KH-like (label: 5'-FAM in FP, hairpin) it was “no binding”; with hsRBFA Nt (label: 5'-FAM in FP) it was “binds”. As to CGCCGCGAAGGCGGCG (structured_RNA) [GC], the binding result with hsRBFA Nt-KH (hairpin) is reported as “binds”.

On to GACGAAC (ssRNA) [ssRNA-3'end], for which the binding result with hsRBFA KH-like (single strand) is reported as “no binding”.

B1: DNA (dsDNA)
DNA 1: TTGGTCAG
DNA 2: CTGACCAA
B1: the binding result in the series with hsRBFA Nt-KH (blunt) is “binds”. In the case of UAAGUGUACUGGAAAGUGCACUUG (structured_RNA) [h45], the binding result in the series with hsRBFA Nt-KH (hairpin) is “binds”; with hsRBFA KH-like (hairpin) it was “no binding”; with hsRBFA Nt it was “binds”.

AUAAUAGAAGUAUUAU (structured_RNA) [AU]: the binding result in the series with hsRBFA Nt-KH (hairpin) is on record as “binds”.
